The supplement of paper PMC9170038

Test system: MS2 coat protein
Assay: apparent KD of MS2 coat protein; designed switch direction (-1 OFF switch, 1 ON switch): 1; higher = weaker reporter binding
Procedure, shortened: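 An oligonucleotide input, 200 uM small-molecule ligand, or no input was present during titration of SNAP-549-labelled MS2 coat protein, which was doubled from 0.7 or 1.5 nM to 3 µM. Designed RNA switches had been transcribed on Illumina chips by stalled E. coli RNA polymerase. Apparent KD per design is the median over clusters of curves fitted to normalised cluster fluorescence.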

[1] = input ligand: microRNA oligo, concentration not stated
[2] = Eterna round: R95, input ligand: FMN 200 uM
[3] = Eterna round: R95, input ligand: microRNA oligo, concentration not stated
[4] = Eterna round: R95, input ligand: none

## GUACAGAUUAUAGGAUAUCACGUCGAUUAGACGUGAGAAGGAUAAUCCCACAUGAAUAUUAAUACAUGAGGAUCACCCAUGUAC [SSNG1/18-B2] (Eterna round: R96, puzzle: Same State NG 1)
Input ligand: FMN 200 uM
  apparent KD of MS2 coat protein: 0.0242 µM
[1]
  apparent KD of MS2 coat protein: 0.022 µM
Input ligand: none
  apparent KD of MS2 coat protein: 0.0305 µM

## UUAUCACAUGAGGAUCACCCAUGUUAUACUUUUUUAGGAUAUUUUAUGUAUGACCAAAUAAAAGAAGGAGGAAUAA [flagellum_key_01] (puzzle: Same State 1)
[2]
  apparent KD of MS2 coat protein: 0.0312 µM
[3]
  apparent KD of MS2 coat protein: 0.0444 µM
[4]
  apparent KD of MS2 coat protein: 0.047 µM

## UGGCUCAGAGCAGGAUAUAUGUGAUCACAUGAGGAUCACCCAUGUCUCGAGCUUCGGCUCGAGACAUAGAAGGGCUCUGAGCCA [SSNG2/3-B2] (Eterna round: R96, puzzle: Same State NG 2)
Input ligand: FMN 200 uM
  apparent KD of MS2 coat protein: 0.0233 µM
[1]
  apparent KD of MS2 coat protein: 0.0218 µM
Input ligand: none
  apparent KD of MS2 coat protein: 0.0225 µM

## AGCCGAAGCGCAGGAUAUACAUGUAUACAUGAGGAUCACCCAUGUAGCAACACGUGGUAGUGAUUGUAGAAGGGUGCUCGGCGC [Omei SS(NG)2 Cv15] (Eterna round: R96, puzzle: Same State NG 2)
[1]
  apparent KD of MS2 coat protein: 0.0186 µM

## AUACAUAUCAGAGGAUAUCACGUCGAAUAGACGUGAGAAGGCUGAUCACACAUGAAUAUUAAUACAUGAGGAUCACCCAUGUAU [SSNG1/14-A1] (Eterna round: R96, puzzle: Same State NG 1)
Input ligand: FMN 200 uM
  apparent KD of MS2 coat protein: 0.0131 µM
[1]
  apparent KD of MS2 coat protein: 0.0133 µM
Input ligand: none
  apparent KD of MS2 coat protein: 0.0174 µM

## AAGCCUAAACGGCGAAAACGACAUGAGGAUCACCCAUGUACACAGGAUAUCAGCCUGCUACAGGCUGAGAAGGGUGAACCUAAA [Maisveon] (Eterna round: R96, puzzle: Same State NG 3)
Input ligand: FMN 200 uM
  apparent KD of MS2 coat protein: 0.797 µM
[1]
  apparent KD of MS2 coat protein: 0.0638 µM
Input ligand: none
  apparent KD of MS2 coat protein: 0.113 µM

## UGGUACAUGGGAGGAUAUCUCAUGGUGACAUGAGGAUCACCCAUGUAGUUGGUGCCGAAAGGCUGAGAGAAGGCCCAUGUACCU [JL SSNG1 3.76] (Eterna round: R96, puzzle: Same State NG 2)
Input ligand: FMN 200 uM
  apparent KD of MS2 coat protein: 0.0629 µM
[1]
  apparent KD of MS2 coat protein: 0.0593 µM
Input ligand: none
  apparent KD of MS2 coat protein: 0.0999 µM

## UGAAUAGUCACAGGAUAUCAUGCGAAAAUUGCGUGAGAAGGGUGGAUGUUGUGCUCAAAGUGCUACAUGAGGAUCACCCAUGUU [SameState NG1 #42] (Eterna round: R96, puzzle: Same State NG 1)
Input ligand: FMN 200 uM
  apparent KD of MS2 coat protein: 0.337 µM
[1]
  apparent KD of MS2 coat protein: 0.234 µM
Input ligand: none
  apparent KD of MS2 coat protein: 0.187 µM

## ACAAGCUUUUCUGUAUUGAAAGGUGGGAUACAUGAGGAUCACCCAUGUUUUUUUGUUUAUUUUUUUCCUCGUCUUAU [JR_SHM208A_Sub088] (puzzle: Sensor for hsa-mir-208a)
[2]
  apparent KD of MS2 coat protein: 0.0343 µM
[3]
  apparent KD of MS2 coat protein: 0.0377 µM
[4]
  apparent KD of MS2 coat protein: 0.0343 µM

## GUCCAAAACACAGGAUAUCCCGGUCAAAAUCCGGGAGAAGGGUGGCCACAUGAGGAUCACCCAUGUGACGUGCGAGAGGCACGA [Diessorire] (Eterna round: R96, puzzle: Same State NG 1)
Input ligand: FMN 200 uM
  apparent KD of MS2 coat protein: 0.118 µM
[1]
  apparent KD of MS2 coat protein: 0.318 µM
Input ligand: none
  apparent KD of MS2 coat protein: 0.54 µM

## GCCGCGUUUCGCGCCUACAUGAGGAUCACCCAUGUUUGUAGGCAGGAUAUCGUCCGCUCUGCGGGCGAGAAGGGCUGUUGUGGU [salish99_SSNG3_R04_024] (Eterna round: R96, puzzle: Same State NG 3)
Input ligand: FMN 200 uM
  apparent KD of MS2 coat protein: 0.0656 µM
[1]
  apparent KD of MS2 coat protein: 0.0581 µM
Input ligand: none
  apparent KD of MS2 coat protein: 0.0867 µM

## AAAACAUGACGAGGAUAUGGUACAUGAGGAUCACCCAUGUAUGUACCACGACGGAAACGUCGAAUCCAGAAGGCGUCAUGAAAA [Mat - Same State NG 2 - JL mod - D25] (Eterna round: R96, puzzle: Same State NG 2)
Input ligand: FMN 200 uM
  apparent KD of MS2 coat protein: 0.0346 µM
[1]
  apparent KD of MS2 coat protein: 0.173 µM
Input ligand: none
  apparent KD of MS2 coat protein: 0.194 µM
